Biological target: soluble HLA-DM, wild type (DM WT) (human) (UniProt P28067)
Experiment: SPR

How did the Kd turn out when “DR1 (DRα V65C) with disulfide-linked HA6 P2-P11 peptide (from UniProt P01903) (peptide-MHC)” was run?
Its Kd is 1000 nM.

And the percent of maximal DM binding at pH 7.0?
The percent of maximal DM binding at pH 7.0 was 40%.

Source: publication PMC3018327 (Nature immunology, 2010)
